Assay results: patent US20080026996A1, “Selective Vpac2 Receptor Reptide Agonists” (ELI LILLY AND COMPANY, priority 2004, published 2008)
Where no end group is shown, it is not given here. [ ]: non-standard residue; d: D form. The star is where a group is joined. Met(O) = CS(=O)CC[C@H](N)C(=O)O; NMeV = CN[C@H](C(=O)O)C(C)C; NMeA = CN[C@@H](C)C(=O)O; Hexanoyl = CCCCCC(=O)*; Aib = CC(C)(N)C(=O)O; Mpa = O=C(O)CCS

T1: human VPAC2 receptor (human, UniProt P41587 24-438)
T1 sequence (looked up): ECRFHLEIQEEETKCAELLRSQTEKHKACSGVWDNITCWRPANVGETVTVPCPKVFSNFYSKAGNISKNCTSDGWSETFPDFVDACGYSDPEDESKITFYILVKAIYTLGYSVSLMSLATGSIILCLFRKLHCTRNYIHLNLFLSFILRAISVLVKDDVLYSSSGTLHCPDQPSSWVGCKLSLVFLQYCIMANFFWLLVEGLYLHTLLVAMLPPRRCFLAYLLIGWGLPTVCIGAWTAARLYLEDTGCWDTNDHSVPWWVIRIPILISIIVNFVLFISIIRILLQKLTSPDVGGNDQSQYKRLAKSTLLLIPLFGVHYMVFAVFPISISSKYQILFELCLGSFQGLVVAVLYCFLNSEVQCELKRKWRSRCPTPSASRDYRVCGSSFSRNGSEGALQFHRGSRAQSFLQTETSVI


molecular target: T1, human VPAC2 receptor; experiment: cell-based or functional assay

Binder	EC50 cAMP, Alpha Screen
Hexanoyl-HSDAVFTDNYTRLRKQVAAKK[Aib]LQSIKNKRYGGPSSGAPPPS (ends and bridges not checked) [P228]	3.48 nM
[Mpa]HSDAVFTDNYTRLLAKLALQKYLQSIKNKRYGGPSSGAPPPS [P205]	1.14 nM
Hexanoyl-HSDAVFTDQYTRLRRQVAARKYLQSIRQGGPSSGAPPPS [P220]	0.12 nM
Hexanoyl-HSDLVFTDNYTRLRKQVAAKKYLQSIKNKRYGGPSSGAPPPS [P223]	5.82 nM
Hexanoyl-HSDA[Aib]FTDNYTRLRKQVAAKKYLQSIKNKRYGGPSSGAPPPS (ends and bridges not checked) [P212]	0.12 nM
Hexanoyl-HSDA[NMeV]FTDNYTRLRKQVAAKKYLQSIKNKRYGGPSSGAPPPS [P211]	989 nM
Hexanoyl-HSDA[dV]FTDNYTRLRKQVAAKKYLQSIKNKRYGGPSSGAPPPS [P210]	0.91 nM
Hexanoyl-HSD[Aib]VFTDNYTRLRKQVAAKKYLQSIKNKRYGGPSSGAPPPS (ends and bridges not checked) [P209]	0.1 nM
Hexanoyl-HSDAVFTDNYTRLRK(Ac)QVAAKK(Ac)YLQSIKNKRYGGPSSGAPPPS [P194]	0.13 nM
Hexanoyl-HSD[NMeA]VFTDNYTRLRKQVAAKKYLQSIKNKRYGGPSSGAPPPS [P208]	50.1 nM
Hexanoyl-HSDAVFTLNYTRLRKQVAAKKYLQSIKNKRYGGPSSGAPPPS [P161]	4 nM
Hexanoyl-HSDAVFTDNYTRLQKQVAAQKYLQSIKNKRYGGPSSGAPPPS [P252]	0.26 nM
Hexanoyl-HSDAVFTDNYTRLLAKVALQKYLQSIKNKRYGGPSSGAPPPS [P196]	0.23 nM
Hexanoyl-HSDAVFTDQYTRLLAKLALQKYLQSIKQKRYGGPSSGAPPPS [P192]	0.18 nM
Hexanoyl-HSDAVFTDNYTRLLAKLAAQKYLQSIKNKRYGGPSSGAPPPS [P197]	0.09 nM
Hexanoyl-HSDAVFTDNYTRLRKQVAGKKYLQSIKNKRYGGPSSGAPPPS [P275]	0.32 nM
Hexanoyl-HSDAVFTDNYTRLRKQVAAKKYWQSIKNKRYGGPSSGAPPPS [P230]	0.3 nM
Hexanoyl-HSDAVFTDNYTRLRKQVAAKKYIQSIKNKRYGGPSSGAPPPS [P233]	0.11 nM
Hexanoyl-HSDAVFTDNYTRLQKQVAAKQYLQSIKNKRYGGPSSGAPPPS [P253]	0.46 nM
Hexanoyl-HSDAVFTDNYTRLRKQLAAKKYLQSIKNKRYGGPSSGAPPPS [P290]	0.22 nM
Hexanoyl-HSDAVFTYNYTRLRKQVAAKKYLQSIKNKRYGGPSSGAPPPS [P163]	5.53 nM
Hexanoyl-HSDAVFTDNYTRLRKQVAAKQYLQSIKNKRYGGPSSGAPPPS [P183]	0.14 nM
Hexanoyl-HSDAVFTDNYTRLRKQVAAKKYLQSIKNKRFGGPSSGAPPPS [P203]	0.14 nM
Hexanoyl-HSDAVFTRNYTRLRKQVAAKKYLQSIKNKRYGGPSSGAPPPS [P162]	11.1 nM

Binder	EC50 cAMP, Alpha Screen
Hexanoyl-HSDAVFTDNYTRLRKQVAAKKYVQSIKNKRYGGPSSGAPPPS [P234]	0.16 nM
Hexanoyl-HSDAVFTEEYTRLQKQVAAKQYLQSIKNKRYGGPSSGAPPPS [P165]	0.94 nM
Hexanoyl-HSDAVFTDNYTRLRKQVAAKRYLQSIKNKRYGGPSSGAPPPS [P182]	0.29 nM
Hexanoyl-HSDAVFTDNYTRLRFQVAAKKYLQSIKNKRYGGPSSGAPPPS [P180]	1.04 nM
Hexanoyl-HSDAVFTDNYTRLRKQVAAKKYFQSIKNKRYGGPSSGAPPPS [P231]	0.26 nM
Hexanoyl-HSDAVFTDNYTRLRKQVAAKLYLQSIKNKRYGGPSSGAPPPS [P185]	0.18 nM
Hexanoyl-HSDAVFTDNYTRLLKQVAAKKYLQSIKNKRYGGPSSGAPPPS [P174]	0.26 nM
Hexanoyl-HSDAVFTDNYTRLAKQVAAKKYLQSIKNKRYGGPSSGAPPPS [P173]	0.25 nM
Hexanoyl-HSDAVFTDNYTRLRRQVAAKKYLQSIKNKRYGGPSSGAPPPS [P176]	0.28 nM
Hexanoyl-HSDAVFTDNYTRLRKQVAAKKYAQSIKNKRYGGPSSGAPPPS [P235]	0.82 nM
Hexanoyl-HSDAVFTDNYTRLRKQVAAKAYLQSIKNKRYGGPSSGAPPPS [P184]	0.22 nM
Hexanoyl-HSDAVFTDNYTRLLAQLALQKYLQSIKNKRYGGPSSGAPPPS [P195]	0.25 nM
Hexanoyl-HSDAVFTDNYTRLKKQVAAKKYLQSIKNKRYGGPSSGAPPPS [P171]	0.82 nM
Hexanoyl-HSDAVFTDNYTRLRKQVAAKFYLQSIKNKRYGGPSSGAPPPS [P186]	0.15 nM
Hexanoyl-HSDAVFTDNYTRLLAKLALQKYLQSIKNKRYGGPSSGAPPPC [P164]	0.11 nM
Hexanoyl-HSDAVFTDNYTRLRLQVAAKKYLQSIKNKRYGGPSSGAPPPS [P179]	0.24 nM
Hexanoyl-HSEAVFTDNYTRLRKQVAAKKYLQSIKNKRYGGPSSGAPPPS [P224]	0.14 nM
Hexanoyl-HSDALFTDNYTRLRKQVAAKKYLQSIKNKRYGGPSSGAPPPS [P289]	0.16 nM
Hexanoyl-HSDAVFTDNYTRLRKQVAAAKYLQSIKNKRYGGPSSGAPPPS [P181]	0.13 nM
Hexanoyl-HSDAVFTDNYTRLFKQVAAKKYLQSIKNKRYGGPSSGAPPPS [P175]	0.68 nM
[Met(O)]HSDAVFTDNYTRLRKQVAAKKYLQSIKNKRYGGPSSGAPPPS (ends and bridges not checked) [P199]	29.6 nM
Hexanoyl-HSD[dA]VFTDNYTRLRKQVAAKKYLQSIKNKRYGGPSSGAPPPS [P207]	0.86 nM
Hexanoyl-HSDIVFTDNYTRLRKQVAAKKYLQSIKNKRYGGPSSGAPPPS [P221]	1.98 nM
